# Results: publication doi:10.1101/2021.12.03.471045 (2021)
# Columns and labels:
# [1] = target: T1, early pandemic (Wuhan) SARS-CoV-2 RBD (SARS-CoV-2, UniProt P0DTC2); assay: SPR
# [2] = target: T1, early pandemic (Wuhan) SARS-CoV-2 RBD; assay: SPR; remark: listed apart in the source
Binder,koff [1],Kd [2]
"EY6A mAb (IgG) (antibody, V domains shown) VH: EVQLVESGGGVVQPGRSLRLSCAASAFTFSSYDMHWVRQAPGKGLEWVAVISYDGSNKYYADSVKGRFTISRDNSKNTLYLQMNSLRAEDTAVYYCAKDGGKLWVYYFDYWGQGTLVTVSS VL: not shown",0.0048 s⁻¹,
"Beta-55 mAb (IgG) (antibody, V domains shown) VH: QVQLQESGPGLVKPSETLSLTCTVSGDSISSSRYYWGWIRQPPGKGLEWIGTFYYSGITYYNPSLKSRVTIFVDTSKNQFSLKLSSVTAADTAVYYCARPRPPDYYDNSGALLFDIWGQGTMVTVSS VL: AIRMTQSPSTLSASVGDRVTIACRASQSISAWLAWYQQKPGKAPKLLIYKASSLESGVPSRFSGSGSGTEFTLTINSLQPDDFATYYCQQYISSSPWTFGQGTKVEIK",0.00018 s⁻¹,0.177 nM
